The values below come from patent US20260274981A1 (VIB VZW, published 2026).

Experiment [1] has as its target T1, recombinant human TfR (2474-TR, R&D Systems), biotinylated (human, UniProt P02786 89-760, biotinylated with EZ-Link NHS-PEG4-Biotinylation Kit).
T1 construct: Bought protein; also called immobilized recombinant human TfR; biotinylated human TfR
Nature of the experiment: SPR (Biacore T200), biotinylated human TfR captured on an SA chip as ligand, VHH as analyte, single cycle kinetics, 1:1 binding model. From the text: (§1) Phage libraries generated after 4 biweekly immunizations of two different camelids, underwent two rounds of pannings on CHO cell lines overexpressing either cynomolgus TfR in the first round or human TfR in the second round. Output libraries were screened with flow cytometry to find binders to human TfR overexpressing cells (FIG. 1A). […] Binding kinetics to recombinant human and cynomolgus TfR were further characterized with Surface Plasmon Resonance (SPR).
(§2) Surface Plasmon Resonance (SPR) was used to measure the interaction between VHHs and human or cynomolgus TfR receptor. Human TfR (2474-TR, R&D Systems) and cynomolgus TfR (90253-C07H, Sino Biological) were biotinylated with the EZ-Link NHS-PEG4-Biotinylation Kit (ThermoFischer Scientific) according to the manufacturer instructions. The binding experiments were performed at 25° C. on a Biacore T200 instrument (Cytiva, Uppsala, Sweden) in HBS-EP+ buffer (10 mM HEPES, 150 mM NaCl, 3 mM EDTA and 0.05% v/v Surfactant P20). Biotinylated human TfR and cynomolgus TfR were captured on a SA sensor chip (Cytiva) at a density of around 250 RU. Increasing concentrations of VHHs were sequentially injected in one single cycle at a flow rate of 30 μl/min. The dissociation was monitored for 20 min. […] A reference flow was used as a control for non-specific binding and refractive index changes. Several buffer blanks were used for double referencing. Binding affinities (KD) and kinetic rate constants (kₒₙ, koff) were derived after fitting the experimental data to the 1:1 binding model with the Biacore T200 Evaluation Software 3.1 using the single cycle kinetic procedure. Each interaction was repeated a least three times.
In general terms: SPR reads the build-up and loss of mass on a sensor chip optically.

The target of experiment [2] is T2, recombinant cynomolgus TfR (90253-C07H, Sino Biological), biotinylated (cynomolgus monkey, UniProt Q5RDH6 89-760 (Pongo abelii entry), biotinylated with EZ-Link NHS-PEG4-Biotinylation Kit).
T2 construct: Bought protein; also called immobilized recombinant cynomolgus TfR
T2 chain: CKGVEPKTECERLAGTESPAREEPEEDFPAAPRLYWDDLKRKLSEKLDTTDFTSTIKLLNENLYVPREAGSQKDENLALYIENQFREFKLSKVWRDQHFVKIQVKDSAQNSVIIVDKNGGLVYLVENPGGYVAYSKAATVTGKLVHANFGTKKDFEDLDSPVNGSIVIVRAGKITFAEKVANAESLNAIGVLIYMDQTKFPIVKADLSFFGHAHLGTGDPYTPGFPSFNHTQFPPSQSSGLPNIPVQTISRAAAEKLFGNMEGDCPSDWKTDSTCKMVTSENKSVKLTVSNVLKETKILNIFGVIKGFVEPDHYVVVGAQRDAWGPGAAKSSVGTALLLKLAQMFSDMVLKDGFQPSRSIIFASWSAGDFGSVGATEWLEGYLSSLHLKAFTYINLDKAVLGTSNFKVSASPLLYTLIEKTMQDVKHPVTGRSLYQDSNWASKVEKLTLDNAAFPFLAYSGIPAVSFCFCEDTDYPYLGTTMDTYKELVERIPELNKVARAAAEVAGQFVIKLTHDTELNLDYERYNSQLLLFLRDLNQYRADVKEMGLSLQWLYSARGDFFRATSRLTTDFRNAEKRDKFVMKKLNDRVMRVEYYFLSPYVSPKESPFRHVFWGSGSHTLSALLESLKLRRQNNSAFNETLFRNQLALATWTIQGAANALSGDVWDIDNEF
Nature of the experiment: SPR (Biacore T200), biotinylated cynomolgus TfR captured on SA chip, VHH as analyte, single cycle kinetics.
Description: as §1
as §2, with “Binding affinities (KD) and kinetic rate constants (kₒₙ, koff) were derived after fitting the experimental data to the 1:1 binding model with the Biacore T200 Evaluation Software 3.1 using the single cycle kinetic procedure. Each interaction was repeated a least three times.” left out

B1: BBB00515 (VHH)
VHH: QVQLQESGGGLVQAGGSLRLSCAASGSIFSINAMGWYRQAPGKQRELVAVITSGGSTIYADSVKGRFTISRDNAENTVYLQMNSLKPEDTAVYYCNAHVGLKVPTIQELSLGFGSWGQGTQVTVSS
notes: Lead VHH expressed in E. coli TG1 and purified by IMAC; detected with anti-FLAG antibody in flow cytometry; also called BBB00515 VHH; not shown: C-terminal 3xFlag/6xHis tag from expression vector pBDS119
For the molecule B1, in experiment [1], the koff was determined as 0.0137 s⁻¹ and the kon came out at 15000 M⁻¹ s⁻¹. Moreover, in experiment [2], the Kd worked out at 63 nM.

B2: BBB00533 (VHH)
VHH: QVQLQESGGGSVQPGGSLRLSCTASGRTFNYAMGWFRQAPGKNREFVATIDWKDGSSYYLDSVRGRFTIERDDAKNTVYLQMNSLKPEDAAVYTCAVGDGDYCSTYTCAAEVEYDYWGQGTQVTVSS
notes: Lead VHH expressed in E. coli TG1 and purified by IMAC; detected with anti-FLAG antibody in flow cytometry; also called BBB00533 VHH; not shown: C-terminal 3xFlag/6xHis tag from expression vector pBDS119
Consider B2, for which, in experiment [1], the koff is 0.00592 s⁻¹ and the on-rate constant (kon) was found to be 29000 M⁻¹ s⁻¹. In addition, the Kd in experiment [2] came out at 104 nM.

As usually defined, the koff is the first-order rate constant of dissociation. The term kon denotes a measure of how fast the partners come together. The term Kd denotes the free concentration of one partner at which half of the binding sites on the other are occupied at equilibrium, for simple one-to-one binding.
